# Laboratory results as given in US20240317859A1 (FOUNDATION FOR BIOMEDICAL RESEARCH AND INNOVATION AT KOBE, published 2024).
# Positions count from the first letter of the chain named. In names and notes the source's numbering stands.
# T1: substituted human PD-1, domain #6 replaced with the corresponding amino acid sequence of mouse PD-1 (human; mouse, UniProt Q15116 25-288)
# T1 construct: Human limits of domain #6 (109-120) are printed; also called PD-1 if domain #6 is replaced
# T1 chain: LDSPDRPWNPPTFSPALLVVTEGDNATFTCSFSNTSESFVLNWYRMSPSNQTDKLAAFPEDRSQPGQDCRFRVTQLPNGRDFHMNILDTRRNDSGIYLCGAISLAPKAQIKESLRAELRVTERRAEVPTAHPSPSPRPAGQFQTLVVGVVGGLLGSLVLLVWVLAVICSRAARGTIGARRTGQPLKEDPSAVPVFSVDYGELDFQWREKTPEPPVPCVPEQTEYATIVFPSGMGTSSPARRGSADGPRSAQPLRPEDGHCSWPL
# T2: substituted human PD-1, domain #7 replaced with the corresponding amino acid sequence of mouse PD-1 (human; mouse, UniProt Q15116 25-288)
# T2 construct: Human limits of domain #7 (38-48) are printed; also called PD-1 if domain #7 is replaced
# T2 chain: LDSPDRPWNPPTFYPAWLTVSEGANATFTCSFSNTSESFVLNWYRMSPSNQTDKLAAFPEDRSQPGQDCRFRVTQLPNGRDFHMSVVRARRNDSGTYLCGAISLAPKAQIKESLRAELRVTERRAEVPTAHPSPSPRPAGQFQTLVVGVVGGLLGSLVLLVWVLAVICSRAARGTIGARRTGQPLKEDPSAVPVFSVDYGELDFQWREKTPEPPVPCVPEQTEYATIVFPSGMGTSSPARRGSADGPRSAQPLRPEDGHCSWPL
# T3: substituted human PD-1, domain #1 replaced with the corresponding amino acid sequence of mouse PD-1 (human; mouse, UniProt Q15116 25-288)
# T3 construct: also called PD-1 when domain #1 is replaced
# T3 chain: T2 chain with Y14S, W17L, T19V, S21T, A24D, A105H, Q109K, K111E, L114P, R115G
# B1: mouse HM266 (antibody, mouse IgG2a, kappa, V domains shown)
# VH: QVQLQQSGPELVKPGASVKMSCKASGYTFTSYYIQWVKQRPGQGLEWIGWIYPGDGSSKYNEKFKGKTTLTADKSSSTAYMLLSSLTSEDSGIYFCASYYGSSFDYWGQGTTLTVSS
# VL: DIQMTQTTSSLSASLGDRVTISCRASQDISNYLNWYQQKPDGTVKFLIYYSSRLHSGVPSRFSGSGSGTDYSLTISNLEQEDIATYFCQQGSTLPFTFGGGTKLEIKR
# notes: Mouse anti-human PD-1 monoclonal antibody (mouse IgG)
# B2: mouse HM297 (antibody, mouse IgG2a, kappa)
# heavy: EVLLQQSGPELVKPGASVKIPCKASGYTFTDYNVDWVRQSHGKSLEWIGDIDPNNGGTIYNQKFKDKATLTVDKSSRTAYMELRSLTSEDTAVYYCARWRGAMDYWGQGTSVTVSSAKTTAPSVYPLAPVCGDTTGSSVTLGCLVKGYFPEPVTLTWNSGSLSSGVHTFPAVLQSDLYTLSSSVTVTSSTWPSQSITCNVAHPASSTKVDKKIEPRGPTIKPCPPCKCPAPNLLGGPSVFIFPPKIKDVLMISLSPIVTCVVVDVSEDDPDVQISWFVNNVEVHTAQTQTHREDYNSTLRVVSALPIQHQDWMSGKEFKCKVNNKDLPAPIERTISKPKGSVRAPQVYVLPPPEEEMTKKQVTLTCMVTDFMPEDIYVEWTNNGKTELNYKNTEPVLDSDGSYFMYSKLRVEKKNWVERNSYSCSVVHEGLHNHHTTKSFSRTPGK
# light: DVQMTQTTSSLSASLGDRVTISCRASQDIDNYLKWYQQKPDGTVKLLIYDTSRLHSGVPSRFSGSGSGTDYSLTISNLKQEDIATYFCQQGYTLPWTFGGGTRLEIKRADAAPTVSIFPPSSEQLTSGGASVVCFLNNFYPKDINVKWKIDGSERQNGVLNSWTDQDSKDSTYSMSSTLTLTKDEYERHNSYTCEATHKTSTSPIVKSFNRNEC
# notes: as for B1
# B3: HM624 (antibody, V domains shown)
# VH: EVLLQQSGPELVQPGTSVKIFCKASGYTFTDYNIDWVKQSHGKSHEWIGDIDPNNGGTVYNQKFKGKATLTVDKSSTTAYMELRSLTSEDTAVYYCTRWRGAMDYWGRGTSVTVSS
# VL: DIQMTQTTSSLSASLGDRVTISCRASQDVSNYLNWYQQKPDGTVKLLIYDTSKLHSGVPSRFSGSGSGTDYSLTIRDPDQEDIATYFCQQGHTLPWTFGGGTKLEIRR
# B4: HM698 (antibody, V domains shown)
# VH: B3 VH with Q13K, T16A, F21P, I34M, H45L, T69S, T77S, T97A, G101S, R108Q
# VL: B1 VL with F46L, S51T, G91Y, S92N, F96W
# B5: HM647 (antibody, V domains shown)
# VH: EVLLQQSGPELVKPGASVKITCKASGYTFTDYNMDWVKQSHGKSLEWIGDIDPNNGGTVYNQKFKDKASLTVDKSSSTGYMELRSLTSEDTAVYYCARWRSAMDYWGQGTSVTVSS
# VL: B1 VL with T7P, F46L, Y49S, S51T, E81V, G91Y, F96W, T102S
# B6: HM268-K7 (antibody, human IgG1, V domains shown)
# VH: QVQLVQSGPEVKKPGASVKVVCKTSGYTFTSYYIQWLKQRPGQGLEWIGWIYFGDASTKYNEKFKGRVTMTADKSTSTAYMELRSLRSDDTAVYYCASYYGSYFDYWGQGTTVTVSS
# VL: DIQMTQNTSSLSASVGDRVTITCRASQDISNYLNWYQQKPDGTVKLLIYSTSRLHSGVPSRFSGSGSGTDYTLTISSLEQEDFATYYCQQGSTLPFTFGQGTKLEIK
# notes: also called humanized HM268, VH ver.K / VL ver.7
# B7: humanized HM268-K8-IgG1-K322A (antibody, V domains shown)
# VH: B6 VH
# VL: DIQMTQSPSSLSASVGDRVTITCRASQDISNYLNWYQQKPDGTVKLLIYSTSRLHSGVPSRFSGSGSGTDYTLTISSLQPEDFATYYCQQGSTLPFTFGQGTKLEIKR
# B8: HM268-L9 (antibody, human IgG1, V domains shown)
# VH: B6 VH with L37V, K38R, R40V, I48M, K74T
# VL: B6 VL with N7S, T8P, D41G, G42K, T43A, V44P, E79Q, Q80P
# notes: also called humanized HM268, VH ver.L / VL ver.9
# B9: HM268-M7 (antibody, human IgG1, V domains shown)
# VH: B6 VH with T24A, L37V, K38R, R40V, I48M, K74T
# VL: B6 VL
# notes: also called humanized HM268, VH ver.M / VL ver.7
# B10: HM268-K9 (antibody, human IgG1, V domains shown)
# VH: B6 VH
# VL: B6 VL with N7S, T8P, D41G, G42K, T43A, V44P, E79Q, Q80P
# notes: also called humanized HM268, VH ver.K / VL ver.9
# B11: HM268-L7 (antibody, human IgG1, V domains shown)
# VH: B6 VH with L37V, K38R, R40V, I48M, K74T
# VL: B6 VL
# notes: also called humanized HM268, VH ver.L / VL ver.7
# B12: HM268-L8 (antibody, human IgG1, V domains shown)
# VH: B6 VH with L37V, K38R, R40V, I48M, K74T
# VL: B6 VL with N7S, T8P, E79Q, Q80P
# notes: also called humanized HM268, VH ver.L / VL ver.8
# B13: HM268-M9 (antibody, human IgG1, V domains shown)
# VH: B6 VH with T24A, L37V, K38R, R40V, I48M, K74T
# VL: B6 VL with N7S, T8P, D41G, G42K, T43A, V44P, E79Q, Q80P
# notes: also called humanized HM268, VH ver.M / VL ver.9
# B14: chimeric HM268-IgG1-K322A (antibody)
# heavy: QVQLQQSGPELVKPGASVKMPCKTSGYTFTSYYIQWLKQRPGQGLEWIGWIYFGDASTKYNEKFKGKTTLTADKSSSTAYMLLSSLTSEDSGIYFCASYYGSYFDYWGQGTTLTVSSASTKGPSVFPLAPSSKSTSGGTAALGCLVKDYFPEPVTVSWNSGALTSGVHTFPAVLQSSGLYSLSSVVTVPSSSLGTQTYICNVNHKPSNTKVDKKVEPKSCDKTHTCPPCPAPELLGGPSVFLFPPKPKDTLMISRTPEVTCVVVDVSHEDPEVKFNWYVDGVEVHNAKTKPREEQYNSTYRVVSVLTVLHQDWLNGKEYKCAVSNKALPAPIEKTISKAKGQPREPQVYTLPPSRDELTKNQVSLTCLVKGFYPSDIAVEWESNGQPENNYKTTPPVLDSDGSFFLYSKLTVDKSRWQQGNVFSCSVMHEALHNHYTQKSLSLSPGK
# light: NIQMTQNTSSLSATLGVRVTISCRASQDISNYLNWYQQKPDGTVKLLIYSTSRLHSGIPSRFSGSGSGTDYSLTISNLEQEDIATYFCQQGSTLPFTFGGGTKLEIKRTVAAPSVFIFPPSDEQLKSGTASVVCLLNNFYPREAKVQWKVDNALQSGNSQESVTEQDSKDSTYSLSSTLTLSKADYEKHKVYACEVTHQGLSSPVTKSFNRGEC
# notes: Mouse Fab region with the Fc region of human IgG1-K322A
# Biological target: T4, human PD-1 (wild-type), expressed on cells (human, UniProt Q15116 25-288)
# T4 construct: also called hPD-1; wild-type human PD-1
# Assay: flow cytometry on PD-1-expressing cells
# Excerpt: The gene of human PD-1 (wild-type) or substituted human PD-1 in which regions 1 to 8 as shown in FIG. 2A were replaced with mouse sequences and a gene of fluorescent protein such as GFP were co-expressed in a cell line (such as DO11.10 T cell hybridoma or HEK293T) by means of a vector ligating the genes with IRES sequences. The expression level of PD-1 on this cell line is correlated with the expression level of fluorescent protein such as GFP. Anti-PD-1 antibody was bound to the PD-1/GFP expressing cells, and the bound antibody was detected with a secondary antibody labeled with a different fluorescent dye. Briefly, PD-1-expressing cells were seeded in V-shaped bottom 96-well plates at 1×10⁵ cells/well. To each cell pellet, 50 μl of anti-human PD-1 antibody adjusted to 5 μg/ml was added and mixed. The mixture was incubated at 4° C. for 15 minutes. After washing, BV421-labeled anti-mouse IgG antibody or BV421-labeled anti-human IgG antibody, each adjusted to 5 μg/ml, was added in 50 μl. The mixture was incubated at 4° C. for 15 minutes. […] The fluorescence intensity of the filtrate was measured with a flow cytometer. The thus obtained fluorescence intensity can be rephrased as the binding capacity of anti-human PD-1 antibody to human PD-1 (wild-type or substituted). […] Binding characteristics to R143A point mutant or substituted Mouse PD-1 (hu38-48) were also analyzed in the same manner.
row,binding result,Binder
1,binds,B1

# Biological target: T1, substituted human PD-1, domain #6 …
# Assay: flow cytometry on cells expressing substituted human PD-1
# Excerpt: (§1) These sub-groups of antibodies are characterized by a common nature that they bind to domain #6 and domain #7, and are distinguished from known antibodies.
# (§2) The gene of human PD-1 (wild-type) or substituted human PD-1 in which regions 1 to 8 as shown in FIG. 2A were replaced with mouse sequences and a gene of fluorescent protein such as GFP were co-expressed in a cell line (such as DO11.10 T cell hybridoma or HEK293T) by means of a vector ligating the genes with IRES sequences. The expression level of PD-1 on this cell line is correlated with the expression level of fluorescent protein such as GFP. Anti-PD-1 antibody was bound to the PD-1/GFP expressing cells, and the bound antibody was detected with a secondary antibody labeled with a different fluorescent dye. Briefly, PD-1-expressing cells were seeded in V-shaped bottom 96-well plates at 1×10⁵ cells/well. To each cell pellet, 50 μl of anti-human PD-1 antibody adjusted to 5 μg/ml was added and mixed. The mixture was incubated at 4° C. for 15 minutes. After washing, BV421-labeled anti-mouse IgG antibody or BV421-labeled anti-human IgG antibody, each adjusted to 5 μg/ml, was added in 50 μl. The mixture was incubated at 4° C. for 15 minutes. After washing, cells were suspended in 200 μl of buffer, and passed through a 70 μm filter. The fluorescence intensity of the filtrate was measured with a flow cytometer. The thus obtained fluorescence intensity can be rephrased as the binding capacity of anti-human PD-1 antibody to human PD-1 (wild-type or substituted). […] Binding characteristics to R143A point mutant or substituted Mouse PD-1 (hu38-48) were also analyzed in the same manner.
row,binding result,Binder
1,no binding (tested: 5 µg/ml),B2
2,no binding (tested: 5 µg/ml),B3
3,no binding (tested: 5 µg/ml),B4
4,no binding (tested: 5 µg/ml),B5

# Biological target: T2, substituted human PD-1, domain #7 …
# Assay: as above
# Excerpt: as §1, §2
row,binding result,Binder
1,no binding (tested: 5 µg/ml),B2
2,no binding (tested: 5 µg/ml),B3
3,no binding (tested: 5 µg/ml),B4
4,no binding (tested: 5 µg/ml),B5

# Biological target: T3, substituted human PD-1, domain #1 …
# Assay: as above
# Excerpt: as §1, §2
row,binding result,Binder
1,no binding (tested: 5 µg/ml),B2
2,no binding (tested: 5 µg/ml),B3

# Biological target: T4, human PD-1 (wild-type), expressed on …
# Assay: cell-based or functional assay
row,Cell-cell contact assay [ng/mL],Binder
1,43.7,B6
2,39.4,B7
3,87.4,B8
4,149,B9
5,150,B10
6,103,B11
7,98.2,B12
8,1430,B13
9,46.5,B14

# Biological target: Human PD-1/PDCD1 Protein (PD-1) (human, UniProt Q15116 25-167, limits assumed)
# Assay: SPR, Biacore 8K; PD-1 captured by anti-His antibody, antibody in flow
# Method: The binding affinity of each antibody to human PD-1 was measured with Biacore 8K (Cytiva). Briefly, anti-His Tag antibody was immobilized by amine coupling using Amine Coupling Kit and His Capture Kit, onto 8 channels of a sensor chip (provided with 16 flow cells; one channel consisting of two flow cells) which had carboxymethyl dextran immobilized on a gold film. The immobilization was performed by feeding an activation solution (NHS and EDC mixed in equal amounts) at a flow rate of 10 μl/min for 7 minutes, an immobilization solution at a flow rate of 5 μl/min for 7 minutes, and 1 M ethanolamine hydrochloride-NaOH (pH 8.5) at a flow rate of 10 μl/min for 7 minutes. The buffer used at the time of immobilization was 1×HBS-EP+ Buffer. After the immobilization and before applying a sample, Human PD-1/PDCD1 Protein (PD-1) adjusted to 1 μg/ml with 1×HBS-EP+ Buffer was fed to one of the two flow cells of each channel in an amount of 20 μl at a flow rate of 10 μl/min to thereby capture PD-1 on the sensor chip. As regards the other flow cell, 1×HBS-EP+ Buffer was fed in the same manner to prepare a control flow cell. Each antibody was adjusted to 16 nM with 1×HBS-EP+ Buffer, and then subjected to 2-fold 7-step serial dilution using 1×HBS-EP+ Buffer. The resultant sample solution (30 μl) was fed to each flow cell at a flow rate of 10 μl/min and the response was measured. After subtracting the response of control flow cell from the response of the flow cell which was allowed to capture the ligand, KD value was calculated by curve fitting using Biacore 8K Evaluation Software.
row,Kd [pM],Binder
1,6.91,B6
2,< 3.06,B7
3,11.1,B8
4,12,B9
5,151,B10
6,2.16,B11
7,1.29,B12
8,61.4,B13
9,< 1.69,B14
